These results are taken from article PMC4352763.

Assay [1] addresses UCH-L5 (full-length, wild type) (human).
Assay [2] deals with UCH-L5_(M148A/F149A) (human).
The target of a further assay is Ub-LysGlyTAMRA (UniProt P0CG48). Kind of assay: fluorescence polarisation. (In general: Fluorescence polarisation rises when a labelled molecule tumbles more slowly, as on binding a larger partner.)
Assay [3] deals with RPN13 DEUBAD domain (aa 265-388) (human) (UniProt Q16186). Kind of assay: ITC. A general note: Isothermal titration calorimetry measures the heat released or taken up as one component is titrated into another.

What is called pKd is the Kd on a negative log10 scale, so that one unit is a factor of ten. A lower pKd goes with a high Kd.

pKd: −log10 of the molar value.

UniProt P0CG48, sequence (P0CG48 whole entry, looked up, the tested form may be a part): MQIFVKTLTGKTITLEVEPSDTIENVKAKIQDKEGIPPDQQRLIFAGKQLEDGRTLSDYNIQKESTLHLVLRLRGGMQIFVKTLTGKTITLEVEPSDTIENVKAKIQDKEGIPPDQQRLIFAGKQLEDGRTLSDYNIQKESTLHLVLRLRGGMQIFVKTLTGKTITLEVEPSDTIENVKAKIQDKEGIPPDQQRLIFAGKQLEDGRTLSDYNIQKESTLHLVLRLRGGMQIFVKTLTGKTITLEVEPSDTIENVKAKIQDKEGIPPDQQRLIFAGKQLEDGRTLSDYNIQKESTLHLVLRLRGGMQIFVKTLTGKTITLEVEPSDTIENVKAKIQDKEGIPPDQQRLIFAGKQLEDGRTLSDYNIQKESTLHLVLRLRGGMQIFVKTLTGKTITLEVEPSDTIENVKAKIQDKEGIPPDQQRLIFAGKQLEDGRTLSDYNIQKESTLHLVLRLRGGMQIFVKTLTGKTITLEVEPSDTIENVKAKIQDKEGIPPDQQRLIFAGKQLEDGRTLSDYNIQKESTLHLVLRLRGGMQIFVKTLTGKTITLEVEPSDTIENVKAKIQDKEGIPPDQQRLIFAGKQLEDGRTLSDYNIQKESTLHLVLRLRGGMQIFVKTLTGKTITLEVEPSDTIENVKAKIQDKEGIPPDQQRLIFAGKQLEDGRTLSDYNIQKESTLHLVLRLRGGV

For “RPN13 DEUBAD domain (aa 265-388) (from UniProt Q16186 265-388) (domain or fragment)”, the results for the activation of Ub-AMC hydrolysis by the addition of RPN13^DEU in assay [1] and in assay [2] were 7 fold and 2.7 fold, respectively.

For the substance “UCH-L5 (C88A)/RPN13DEU complex (from UniProt Q9Y5K5-3;Q16186)”, the pKd with Ub-LysGlyTAMRA was 5.64.

Substance “UCH-L5 (full-length, wild type) (enzyme)” had a pKd in assay [3] of 8.22.
